# Test results taken from patent US20070060497A1, “Reagents for modifying biopharmaceuticals, the use and production thereof” (priority 2003, published 2007).
# Columns and labels:
# L-asparaginase = molecular target: T1, L-asparaginase (Escherichia coli, UniProt P00805); experiment: L-asparaginase enzyme activity (ammonium released, quantified with Nessler reagent); type: biochemical
# T1 construct: purchased ProThera
# Description: (§1) Determining the enzyme activities: L-asparaginase catalyzes the deamidation of L-asparagine to form L-aspartic acid. In order to determine the enzyme activity, ammonium which was being released in this reaction was quantified using Neβler reagent. Streptokinase activates plasminogen. Plasminogen which has been activated in this way catalyzes the hydrolysis of the tripeptide derivative D-Val-Leu-Lys-para-nitroanilide (S-2251). In order to indirectly determine the activity of streptokinase, the quantity of nitroaniline which was released was quantified photometrically at 405 nm. The para-nitroanilide derivative α-benzoylarginine-para-nitroanilide was used to determine the peptidolytic activity of trypsin, by photometrically quantifying the nitroaniline which was released at 405 nm.
# Substance 16 (0.5 eq./0.7 μl, 1 eq./1.4 μl, 2 eq./2.7 μl, 5 eq./6.8 μl, 10 eq./13.7 μl and, respectively, 20 eq./27.3 μl) dissolved in dimethyl sulfoxide (10 mg/ml) was added to 75 μl of a solution of L-asparaginase (0.5 mg/ml) in sodium carbonate buffer (pH 8.5 to 9.5) and the mixture was made up to a total volume of 150 μl using sodium carbonate buffer (pH 8.5 to 9.5). The reaction mixture was incubated at 25° C. and 300 rpm for 1 h on a thermomixer. Excess substance 16 was then removed by means of filtration in centrifuge filtration units (10 kDa cut-off) using water as rinsing liquid.
# trypsin = experiment: Peptidolytic activity of trypsin (α-benzoylarginine-para-nitroanilide, 405 nm); type: biochemical
# Description: as §1
# Substance 16 (0.5 eq./1.5 μl, 1 eq./2.7 μl, 2 eq./5.4 μl, 5 eq./13.8 μl and, respectively, 10 eq./27.3 μl) dissolved in dimethyl sulfoxide (10 mg/ml) was added to 120 μl of a solution of trypsin (1.0 mg/ml) in sodium carbonate buffer (pH 8.5 to 9.5) and the mixture was made up to a total volume of 150 μl using sodium carbonate buffer (pH 8.5 to 9.5). The reaction mixture was incubated at 25° C. and 300 rpm for 1 h on a thermomixer. Excess substance 16 was then removed by means of filtration in centrifuge filtration units (10 kDa cut-off) using water as rinsing liquid.
Molecule,Residual activity (L-asparaginase; 0.5 eqs. of 16 employed) [%],Residual activity (L-asparaginase; 1 eq. of 16 employed) [%],Residual activity (L-asparaginase; 2 eqs. of 16 employed) [%],Residual activity (L-asparaginase; 5 eqs. of 16 employed) [%],"Residual activity (L-asparaginase; 10 eqs. of 16 employed, degree of modification 41%) [%]","Residual activity (L-asparaginase; 20 eqs. of 16 employed, degree of modification 43%) [%]",Residual activity (trypsin; 0.5 eqs. of 16 employed) [%],Residual activity (trypsin; 1 eq. of 16 employed) [%],Residual activity (trypsin; 2 eqs. of 16 employed) [%],Residual activity (trypsin; 5 eqs. of 16 employed) [%],"Residual activity (trypsin; 10 eqs. of 16 employed, degree of modification 44%) [%]"
"conjugate composed of L-asparaginase and substance 16: conjugate composed of the compound according to the invention substance 16 and L-asparaginase (conjugate, UniProt P00805 23-348, looked up, conjugated to substance 16, conjugate composed of the compound according to the invention substance 16 and L-asparaginase) L-asparaginase 2: LPNITILATGGTIAGGGDSATKSNYTVGKVGVENLVNAVPQLKDIANVKGEQVVNIGSQDMNDNVWLTLAKKINTDCDKTDGFVITHGTDTMEETAYFLDLTVKCDKPVVMVGAMRPSTSMSADGPFNLYNAVVTAADKASANRGVLVVMNDTVLDGRDVTKTNTTDVATFKSVNYGPLGYIHNGKIDYQRTPARKHTSDTPFDVSKLNELPKVGIVYNYANASDLPAKALVDAGYDGIVSAGVGNGNLYKSVFDTLATAAKTGTAVVRSSRVPTGATTQDAEVDDAKYGFVASGTLNPQKARVLLQLALTQTKDPQQIQQIFNQY",100,100,92,87,75,60,,,,,
"conjugate composed of trypsin and substance 16: conjugate composed of the compound according to the invention substance 16 and trypsin (conjugate, UniProt P00760 24-246, looked up, conjugated to substance 16, conjugate composed of the compound according to the invention substance 16 and trypsin) Serine protease 1: IVGGYTCGANTVPYQVSLNSGYHFCGGSLINSQWVVSAAHCYKSGIQVRLGEDNINVVEGNEQFISASKSIVHPSYNSNTLNNDIMLIKLKSAASLNSRVASISLPTSCASAGTQCLISGWGNTKSSGTSYPDVLKCLKAPILSDSSCKSAYPGQITSNMFCAGYLEGGKDSCQGDSGGPVVCSGKLQGIVSWGSGCAQKNKPGVYTKVCNYVSWIKQTIASN",,,,,,,104,109,119,136,137
